Data reported in US9365620B2, “Methods for treating pain” (NoNO NC., priority 2008, dated 2016).

Target: N-type calcium channels (Mus musculus, UniProt O55017)
Type: cell-based, Swiss mice
Conditions: Tat-NR2B9c 100 μM, conotoxin 1 μM, FIG. 5A

Sequence: YGRKKRRQRRRKLSSIESDV [Tat-NR2B9c] (Synthetic peptide Tat-NR2B9c) [chimeric peptide of a standard tat peptide and …]
- additional inhibition of Ca^2+ current once N-channels are blocked by Omega conotoxin: no additional inhibition
